In assay [1] the target is A. thaliana CMT3 (residues 42-839) (A. thaliana) (UniProt Q94F88).
The target in assay [2] is Zea mays ZMET2 (residues 130-912), core fragment harboring the CD, BAH and MTase domains (Zea mays) (UniProt Q9AXT8).
Assay [3] has the same target. The source holds these as a separate data set.

Chain of Zea mays ZMET2 (residues 130-912), core fragment harboring the CD, BAH and MTase domains (Zea mays) (Q9AXT8 130-912): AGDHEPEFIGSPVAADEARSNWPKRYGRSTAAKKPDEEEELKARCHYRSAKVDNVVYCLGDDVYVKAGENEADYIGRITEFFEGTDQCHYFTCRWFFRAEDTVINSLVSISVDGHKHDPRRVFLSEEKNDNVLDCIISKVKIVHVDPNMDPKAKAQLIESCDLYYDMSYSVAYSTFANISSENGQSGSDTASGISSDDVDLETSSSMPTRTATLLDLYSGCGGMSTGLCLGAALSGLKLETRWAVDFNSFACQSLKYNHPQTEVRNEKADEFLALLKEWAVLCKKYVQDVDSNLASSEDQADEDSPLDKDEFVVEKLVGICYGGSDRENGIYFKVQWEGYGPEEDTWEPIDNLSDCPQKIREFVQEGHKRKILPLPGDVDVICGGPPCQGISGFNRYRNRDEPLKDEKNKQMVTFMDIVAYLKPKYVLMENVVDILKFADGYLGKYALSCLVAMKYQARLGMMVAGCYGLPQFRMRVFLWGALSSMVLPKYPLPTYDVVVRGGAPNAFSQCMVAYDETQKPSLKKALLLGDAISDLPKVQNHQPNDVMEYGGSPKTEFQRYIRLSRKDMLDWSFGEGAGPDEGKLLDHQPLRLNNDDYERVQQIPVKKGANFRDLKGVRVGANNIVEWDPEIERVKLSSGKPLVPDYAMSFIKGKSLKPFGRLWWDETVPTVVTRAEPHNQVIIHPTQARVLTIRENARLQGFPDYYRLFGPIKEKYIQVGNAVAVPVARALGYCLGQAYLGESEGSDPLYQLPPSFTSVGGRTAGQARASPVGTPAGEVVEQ
Chain of A. thaliana CMT3 (residues 42-839) (A. thaliana) (Q94F88 42-839): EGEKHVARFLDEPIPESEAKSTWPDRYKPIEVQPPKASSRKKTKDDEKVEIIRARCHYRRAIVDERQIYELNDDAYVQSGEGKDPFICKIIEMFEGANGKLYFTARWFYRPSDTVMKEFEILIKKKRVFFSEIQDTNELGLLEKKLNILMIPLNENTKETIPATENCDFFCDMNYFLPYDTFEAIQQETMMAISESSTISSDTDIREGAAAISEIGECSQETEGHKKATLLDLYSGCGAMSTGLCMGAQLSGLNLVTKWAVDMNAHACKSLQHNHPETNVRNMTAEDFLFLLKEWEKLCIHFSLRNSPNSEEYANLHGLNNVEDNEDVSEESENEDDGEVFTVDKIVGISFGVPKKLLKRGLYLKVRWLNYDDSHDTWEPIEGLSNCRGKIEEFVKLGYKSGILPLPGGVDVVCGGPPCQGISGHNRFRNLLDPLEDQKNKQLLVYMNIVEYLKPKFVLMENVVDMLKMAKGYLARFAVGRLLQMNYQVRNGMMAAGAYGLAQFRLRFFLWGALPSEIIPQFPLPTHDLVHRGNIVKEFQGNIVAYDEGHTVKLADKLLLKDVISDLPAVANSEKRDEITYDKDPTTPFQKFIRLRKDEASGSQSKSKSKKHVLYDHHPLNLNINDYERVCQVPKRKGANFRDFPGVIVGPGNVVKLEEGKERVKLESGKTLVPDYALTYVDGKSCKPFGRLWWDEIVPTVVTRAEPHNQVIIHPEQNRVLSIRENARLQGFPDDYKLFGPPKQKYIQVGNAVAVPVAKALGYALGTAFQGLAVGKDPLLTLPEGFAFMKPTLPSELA

With “histone H3K9me2K18ac peptide residues 1-32, followed by a C-terminal tyrosine (from UniProt P68431 2-33)”, in assay [1], the in vitro DNA methylation activity of CMT3, reduction of the enzymatic stimulation against H3 (1–32)K9me2 is more than 3 fold. The same substance returned an in vitro DNA methylation activity of ZMET2, reduction of the enzymatic stimulation against H3 (1–32)K9me2 in assay [2] of more than 3 fold.
In assay [3], “histone H3K9me2 peptide encompassing residues 1-32, followed by a C-terminal tyrosine (from UniProt P68431 2-33)” yielded an in vitro DNA methylation activity of ZMET2 on hmCHG DNA, fold stimulation by the peptide of 15 fold and an in vitro DNA methylation activity of ZMET2 on unmodified CAG DNA, fold stimulation by the peptide of 6 fold.

The record behind these values is paper PMC9256654, “Mechanistic basis for maintenance of CHG DNA methylation in plants” (Nature Communications, 2022).
